The values below come from patent US20100233157A1 (published 2010).

The test has as its target T1, Human Fas (CD95) on the cell surface (human, UniProt P25445 26-335).
T1 construct: also called APO-1; TNR6_Human
T1 sequence: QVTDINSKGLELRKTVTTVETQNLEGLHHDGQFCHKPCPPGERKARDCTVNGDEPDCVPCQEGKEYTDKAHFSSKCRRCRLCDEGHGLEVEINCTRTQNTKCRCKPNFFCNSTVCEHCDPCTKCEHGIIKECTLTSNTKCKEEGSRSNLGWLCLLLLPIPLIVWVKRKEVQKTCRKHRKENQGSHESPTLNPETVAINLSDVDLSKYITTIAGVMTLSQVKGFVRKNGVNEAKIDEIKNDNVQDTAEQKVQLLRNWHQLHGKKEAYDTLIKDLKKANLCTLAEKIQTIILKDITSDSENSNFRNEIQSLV
In words: flow cytometry on Jurkat cells, FITC anti-human IgG secondary, geometric MFI after background subtraction. The procedure:
Binding of F45D9-γ1 and F45D9-γ4 to the surface of Fas expressing Jurkat and SKW6.4 cells (from ATCC, Jurkat, clone E6-1, ATCC-TIB-152, Human T Leukemia cell line); SKW6.4 cells, ATCC-TIB-215, Human B lymphoblastoid cell line) was explored by immunofluorescence staining and flow cytometry analysis. Cells were cultured in RPMI 1640 medium (GIBCO, Cat. 3105205) supplemented with 2 mM glutamax (GIBCO), 100 UI/mL penicillin, 100 μg/mL streptomycin (Sigma) and 5-10% fetal bovine serum (GIBCO), at 37° C. and 5% CO₂. After washing in PBS Jurkat or SKW6.4 cells (0.2×10⁶ cells/well) were incubated in staining buffer (PBS/1% FBS) containing F45D9-γ1, F45D9-γ4 or human IgG control antibodies (Human IgG1, kappa, Sigma, Cat. I5154 or Human IgG4, kappa, Sigma, Cat. I4639) in a 96-well U-bottom plate for 30 min on ice, in a 100 ul/well volume. Cells were then washed once with staining buffer, and further incubated for 30 min on ice with 1:30 dilution of FITC-conjugated rabbit F(ab′)₂ anti-human IgG (DakoCytomation Cat. F0056). After washing and fixing with 1% formaldehyde in PBS cells were analyzed in a FACScan (Becton Dickinson, Mountain View, Calif.). The reactivity of F45D9-γ1 and F45D9-γ4 to the surface of Jurkat cells was quantified and Geometric Mean Fluorescence Intensity (MFI) after background subtraction (FIG. 1A) and histograms (FIG. 1B) are shown. […]
Background: Flow cytometry measures light scatter and fluorescence of single cells or particles in a stream.

B1: F45D9-γ1 mAb (recombinant human mAb T17/B2-1G4, gamma-1 isotype) (antibody, V domains shown)
VH: QVQLQQWGAGLLKPSETLSLICAVYGGSFSTYYWTWIRQPPGKGLEWIGEINHRGTTNYSPSLKSRVTISVDTSKNHISLNLTSVTAADTALYYCARGLLWIGEGDYGLDVWGQGTTVTVSS
VL: DIQMTQSPSSLSASVGDRVTITCRASQGIRRWLAWYQQKPEKAPKSLIYAASSLQSGVPSRFSGSGSGTDFTLTISSLQPEDFATYYCQQYNSYPYTFGQGTKLEIKR
notes: Whole human IgG1 (γ1fa allotype) with human kappa light chain, made in CHO DG44 cells; also called IgG1; T17/L18/B2-1G4
A word on the EC50 (read off the curve): it is the concentration giving half of the maximal effect. The low end stands for an effect from little substance, the high end for a need for much substance. Regarding B1, the “EC50 (read off the curve)” value is roughly 0.5 µg/mL.
